In PMC2173747 (The Journal of Cell Biology, 2003):

Biological target: purified human gelsolin (human, UniProt P06396 28-782)
Test: ELISA

Sequence of purified human gelsolin (P06396 28-782): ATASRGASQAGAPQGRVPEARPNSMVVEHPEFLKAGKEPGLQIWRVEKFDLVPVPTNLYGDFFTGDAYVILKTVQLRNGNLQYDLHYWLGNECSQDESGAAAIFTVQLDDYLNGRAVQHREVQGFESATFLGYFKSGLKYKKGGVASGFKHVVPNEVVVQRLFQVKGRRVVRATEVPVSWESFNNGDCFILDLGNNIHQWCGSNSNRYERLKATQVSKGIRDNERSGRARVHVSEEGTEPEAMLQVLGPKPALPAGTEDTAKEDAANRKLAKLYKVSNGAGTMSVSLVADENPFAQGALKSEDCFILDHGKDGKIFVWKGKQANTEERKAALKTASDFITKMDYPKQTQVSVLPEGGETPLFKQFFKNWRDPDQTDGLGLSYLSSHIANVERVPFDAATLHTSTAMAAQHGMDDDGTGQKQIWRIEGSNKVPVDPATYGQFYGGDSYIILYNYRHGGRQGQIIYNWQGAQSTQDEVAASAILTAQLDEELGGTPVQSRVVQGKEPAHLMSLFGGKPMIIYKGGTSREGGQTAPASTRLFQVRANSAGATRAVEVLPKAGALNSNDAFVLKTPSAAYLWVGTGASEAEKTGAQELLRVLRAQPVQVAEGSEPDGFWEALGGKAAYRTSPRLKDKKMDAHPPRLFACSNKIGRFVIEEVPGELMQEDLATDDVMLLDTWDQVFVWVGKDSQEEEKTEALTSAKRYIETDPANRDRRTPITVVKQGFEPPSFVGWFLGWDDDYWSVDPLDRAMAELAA

- EC50: 30 ± 4 nM
B1: GST-PYK2Δ1–781 (domain or fragment)
chain: EEDFIQPSSREEAQQLWEAEKVKMRQILDKQQKQMVEDYQWLRQEEKSLDPMVYMNDKSPLTPEKEVGYLEFTGPPQKPPRLGAQSIQPTANLDRTDDLVYLNVMELVRAVLELKNELCQLPPEGYVVVVKNVGLTLRKLIGSVDDLLPSLPSSSRTEIEGTQKLLNKDLAELINKMRLAQQNAVTSLSEECKRQMLTASHTLAVDAKNLLDAVDQAKVLANLAHPPAE
